According to article PMC9784262:

Legend:
[1] = test system: Nterm (position 1, -----FR----); assay: potentiometry; conditions: 25 °C; not stated (no added salt mentioned); none stated (unbuffered aqueous surfactant solution, N2 atmosphere, magnetic stirring); aggregated (micellar): post-micellar surfactant concentration, exact concentration not stated
[2] = test system: Nterm (position 1, -----WR----); assay: potentiometry; conditions: 25 °C; not stated (no added salt mentioned); none stated (unbuffered aqueous surfactant solution, N2 atmosphere, magnetic stirring); aggregated (micellar): post-micellar surfactant concentration, exact concentration not stated

PANHC8 (phenylalanine-arginine octyl amide dihydrochloride) (synthetic)
pKa [1]: 6.9

PANHC10 (phenylalanine-arginine decyl amide dihydrochloride) (synthetic)
pKa [1]: 6.9

PANHC12 (phenylalanine-arginine dodecyl amide dihydrochloride) (synthetic)
pKa [1]: 6.1

PANHC14 (phenylalanine-arginine tetradecylamide dihydrochloride) (synthetic)
pKa [1]: 5.9

TANHC10 (tryptophan-arginine decyl amide dihydrochloride) (synthetic)
pKa [2]: 7.2

TANHC12 (tryptophan-arginine dodecyl amide dihydrochloride) (synthetic)
pKa [2]: 7.8

TANHC14 (tryptophan-arginine tetradecylamide dihydrochloride) (synthetic)
pKa [2]: 7.0
